Results reported in PMC12416549 (2024).
Substitutions are numbered along the chain they refer to. Names and notes keep the numbering of the source.

T1: TNFR1 (Homo sapiens, UniProt P19438)
T1 chain: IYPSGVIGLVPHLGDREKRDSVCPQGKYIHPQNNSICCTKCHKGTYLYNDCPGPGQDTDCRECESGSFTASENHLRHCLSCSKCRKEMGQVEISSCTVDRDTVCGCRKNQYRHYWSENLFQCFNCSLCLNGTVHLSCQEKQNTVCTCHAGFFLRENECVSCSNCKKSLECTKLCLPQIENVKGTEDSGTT

T2: TNFR2 (UniProt P20333 23-212)
T2 chain: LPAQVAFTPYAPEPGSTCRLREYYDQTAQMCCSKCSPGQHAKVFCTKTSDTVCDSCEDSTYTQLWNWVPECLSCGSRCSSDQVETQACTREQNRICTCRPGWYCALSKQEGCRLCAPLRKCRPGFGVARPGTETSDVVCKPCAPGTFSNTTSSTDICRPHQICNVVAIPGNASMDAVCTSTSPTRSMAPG

B1: OX40 (protein)
chain: LHCVGDTYPSNDRCCHECRPGNGMVSRCSRSQNTVCRPCGPGFYNDVVSSKPCKPCTWCNLRSGSERKQLCTATQDTVCRCRAGTQPLDSYKPGVDCAPCPPGHFSPGDNQACKPWTNCTLAGKHTLQPASNSSDAICEDRDPPATQPQETQGPPARPITVQPTEAWPRTSQGPSTRPVEVPGGRA
B2: TNFR1 (protein)
chain: LVPHLGDREKRDSVCPQGKYIHPQNNSICCTKCHKGTYLYNDCPGPGQDTDCRECESGSFTASENHLRHCLSCSKCRKEMGQVEISSCTVDRDTVCGCRKNQYRHYWSENLFQCFNCSLCLNGTVHLSCQEKQNTVCTCHAGFFLRENECVSCSNCKKSLECTKLCLPQIENVKGTEDSGTT
B3: R61G (designed binder)
chain: MTLQELLREEALRRAEAEAFRYALELLAEKFPEQKEYLLDLAEEIESQIRSLSGVDVEDVGKFLDKEWAWVKELLAEHPAELAEVEAARAARLAELRAEVEAKVAA
B4: A23M (designed binder)
chain: B3 chain with A23M, G61R
B5: S51L (designed binder)
chain: B3 chain with S51L, G61R
B6: E81Q (designed binder)
chain: B3 chain with G61R, E81Q
B7: R14S (designed binder)
chain: B3 chain with R14S, G61R
B8: S51M (designed binder)
chain: B3 chain with S51M, G61R
B9: E43I (designed binder)
chain: B3 chain with E43I, G61R
B10: E25V (designed binder)
chain: B3 chain with E25V, G61R
B11: E25N (designed binder)
chain: B3 chain with E25N, G61R
B12: E16N (designed binder)
chain: B3 chain with E16N, G61R
B13: T2N (designed binder)
chain: B3 chain with T2N, G61R
B14: Y37R (designed binder)
chain: B3 chain with Y37R, G61R
B15: K62V (designed binder)
chain: B3 chain with G61R, K62V
B16: D40P (designed binder)
chain: B3 chain with D40P, G61R
B17: V71Q (designed binder)
chain: B3 chain with G61R, V71Q
B18: L38W (designed binder)
chain: B3 chain with L38W, G61R
B19: R97A (designed binder)
chain: B3 chain with G61R, R97A
B20: Q48Y (designed binder)
chain: B3 chain with Q48Y, G61R
B21: TNFR2_mb1 (designed binder)
chain: LNPEQVAKIGAAIDAGRKYLDAKIEEAKKTLTLRTAQALLVIRSQYERAVDTLFTDPSAAEKELAATLATIDRLLKEHPELAAEIKAFIRSTMAEIRALLAASLAA

Target: OX40_mb1
Experiment: SPR

Kd [nM]	koff [s⁻¹]	Binder
30	0.033	B1

Target: TNFR1_mb1
Experiment: SPR

Kd [nM]	koff [s⁻¹]	Binder
29	0.134	B2

Target: TNFR1_mb2
Experiment: SPR

Kd [nM]	koff [s⁻¹]	Binder
24.5	0.0773	B2

Target: T1, TNFR1
Experiment: yeast display SC50

apparent Kd (screen) [nM]	Binder
2.25	B3
0.539	B4
0.653	B5
0.49	B6
0.49	B7
0.718	B8
0.539	B9
0.593	B10
0.869	B11
0.446	B12
0.956	B13
4.83	B14
0.49	B15
9.41	B16
0.869	B17
0.49	B18
0.718	B19
11.4	B20

Target: T2, TNFR2
Experiment: SPR

koff [s⁻¹]	Binder
0.00277	B21
